Assay: yeast display, Sf9 membrane polyspecificity reagent, FACS + sequencing; frameworks hold sequencing errors
Summary of the method: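 Genes from sorted yeast were amplified by colony PCR, read by MiSeq 2 × 250 sequencing and filtered on CDR length. These cells carried a synthetic nanobody library in Saccharomyces cerevisiae BJ5465 and were sorted by FACS into low and high (top ~1%) gates on anti-HA and streptavidin fluorescence. Polyreactivity is labelled according to the gate of origin.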

Row | Sequence | polyreactivity (PSR sort gate)
1 | QVQLVESGGGLVQAGGSLRLSCAASGRIIGFNAMGWYRQAPGKERELVASIRTTGGSTRYADSVKGRFTISRDNAKNTVYLQMNSLIPEDTAVYYCAARWGKTLWQYNYWGQGTQVTVSS | high polyreactivity
2 | QVQLVESGGGLVQAGGSLRLSCAASGRIIGIKAMGWYRLAPGKEMELVATITSGGDTNYADSVKGRFTISRDNAKNTVYIQMNSLKPEDTAVYYCNAESYGLGIGYEYWGQGTQVTVSS | low polyreactivity
3 | QVQLVESGGGLVQAGGSLRLSCAASGRIIGLYTMGWYRQAPGKERELVARITSGDRTYYADSVKGRFTISRDNAKNTVYLQMNSLKPEDTAVYYCAAEFTYRYDYWGQGTQVTVSS | high polyreactivity
4 | QVQLVESGGGLVQAGGSLRLSCAASGRIIGRYVMGWYRQAPGKERELVAAITRGGSTNYADSVKGRFTISRDNAKNTVYLQMNSLKPEDTAVYYCARAYSTVNRYSMYYWGQGTQVTVSS | high polyreactivity
5 | QVQLVESGGGLVQAGGSLRLSCAASGRIIGSNTMGWYRQAPGKEREFVATISSSGGSTYYADSVKGRFTISRDNAKNTVYLQMNSLKPEDTSVYYCAAPWSSGSRGGYDYWGQGTQVTVSS | high polyreactivity
6 | QVQLVESGGGLVQAGGSLRLSCAASGRIIGTYAMGWYRQAPGKERELVAAITARTSSTYYADSVKGRFTISRDNAKNTVYLQMNSLKPEDTAVYYCARTGSYRPSFRYDYWGQGTQVTVSS | high polyreactivity
7 | QVQLVESGGGLVQAGGSLRLSCAASGRIIGWYAMGWYRQAPGKERELVAAISQDATRTYYADSVTGRFTISRDHAKNTVYLQMLRLKPEDTAVYNCNVVYRYAGWSYDSWGQGTQVTVSS | high polyreactivity
8 | QVQLVESGGGLVQAGGSLRLSCAASGRIIGYYAMGWYRQAPGKERELVAAITSGGRTNYADSVKGRFTISRDNAKNTVYLQMNSLKPEDTAVYYCAKEYPRYSSPYDYWGQGTQVTVSS | low polyreactivity
9 | QVQLVESGGGLVQAGGSLRLSCAASGRIIGYYAMGWYRQAPGKERELVAAITSSGSRTYYADSVKGRFTISRDNAKNTVYLQMNSLKPEDTAVYYCATTKVYYSSKSSYYYWGQGTQVTVSS | high polyreactivity
10 | QVQLVESGGGLVQAGGSLRLSCAASGRIIGYYTMGWYSQAPGKERELVAAITSGGRTYYADSVKGRFTISRDNAKNTVYLQMNSLKPEDTAVYYCAADWYYRSDYWGQGTQVTVSS | low polyreactivity
11 | QVQLVESGGGLVQAGGSLRLSCAASGRIIGYYVMGWYRQAPGKERELVAAISSRTGTTYYADSVKGRFTISRDYAKNTVYLQMNRLKPEDTAVYYCNARELTTYWSFDYHHSEYDYWGQGTQVTVSS | high polyreactivity
12 | QVQLVESGGGLVQAGGSLRLSCAASGRIIKFYAMGWNRQAPGKERELVAVIRSVTRTKYADSVKGRFTISRDNAKNTVYLQLNSLKPEDTAVYYCAAREVGKMDYWGQGTQVTVSS | low polyreactivity
13 | QVQLVESGGGLVQAGGSLRLSCAASGRIIKYYTMGWYRQAPGKERELVAAISRGGTTNYADSVKGRFTISRDNAKNTVYLQMNSLKPEDTAVYYCNAVGFYAANTFDYWGQGTQVTVSS | high polyreactivity
14 | QVQLVESGGGLVQAGGSLRLSCAASGRIIPAYDMGWYRQAPGKERELVAAISQGAGGSTYYADSVKGRFTISRDNAKNTVYLQMISLKPEDTAVYSCAREGESGVVDTYGHVYVYEYDYWGQGTQVTVSS | low polyreactivity
15 | QVQLVESGGGLVQAGGSLRLSCAASGRIIPSYAMGWYRQAPGKERELVAAISDSDGSTYYADSVKGRFTISRDNAKNTVYLQMNSLKPEDTAVYYCAAEGSYPAYDYWGQGTQVTVSS | low polyreactivity
16 | QVQLVESGGGLVQAGGSLRLSCAASGRIIRTYSMGRYRQAPGKERELVAVISRRGGRTYYADSVKGRFTFSRDNAKNTVYVQINSLKPEDTAVYYCNADYSGGGGGYWGQGTLVTVSS | high polyreactivity
17 | QVQLVESGGGLVQAGGSLRLSCAASGRIITAYAMGWYRQAPGKEREFVAAINVSGGSTYYADSVKGRFTISRDNAKNTVYLQMDSLKPEDSAVYYCNADYYYYDIYWWQMDYWGQGTQVTVSS | low polyreactivity
18 | QVQLVESGGGLVQAGGSLRLSCAASGRIITAYYAMGWSRQAPGKERELVASISSSGTSTYADSVKGRFTISRDNAKNTVYLQMNSLKPEDTAVYYCATRKLRTRRYDYGYWGQGTQVTVSS | low polyreactivity
19 | QVQLVESGGGLVQAGGSLRLSCAASGRIITGNAMGWYRQAPGKERELVATITRRGGSTYYADSVKGRFTISRDNAKNTVYLQMNSLKPEDTAVYYCAANRLFSYDKYGYWGQGTQVTVSS | high polyreactivity
20 | QVQLVESGGGLVQAGGSLRLSCAASGRIITKYTMGWYRQAPGKERELVAAISRSDRTNYADSVKGRFTISRDNAKNTVYLQMNSLKPEDTAVYYCAAQFTVLWYEYYYWGQGTQVTVSS | high polyreactivity
21 | QVQLVESGGGLVQAGGSLRLSCAASGRIIVHYAMGWYRQAPGKERELVAAISWSGGSTYYADSVKGRFTISRDIGNNTVYLQMNSLKPEDTAVYYCNALDPLYFRYDYWGQGTQVTVSS | low polyreactivity

Row | Sequence | polyreactivity (PSR sort gate)
22 | QVQLVESGGGLVQAGGSLRLSCAASGRIIYNNAMGWSRQAPGTERELVAAISIGGITYYADSVKGRFTISRDNAKNTVYLQMNSLKPEDTAVYYCAALNTGYRTRRLGRDYWGQGTQVTVSS | low polyreactivity
23 | QVQLVESGGGLVQAGGSLRLSCAASGRIIYRYAMGWYRQAPGKERELVATITWSTTSTYHADSVKGRFTISRDNAKNTVYLQMNSLKPEDTAVYYCAASIIPGFRRDPFGYWGQGTQVTVSS | low polyreactivity
24 | QVQLVESGGGLVQAGGSLRLSCAASGRIIYTNAMGWYRQAPGKERELVAAINRSGGITYYADSVKGRFTISRDNAKNTVYVQMNSLKPEDTAVYYCAKDSSWASYNHDYWGQGTQVTVSS | low polyreactivity
25 | QVQLVESGGGLVQAGGSLRLSCAASGRIIYVYAMGWYRQAPGKERELVAAISDSGGSTYYADSVKGRFTISRDNAKNTVYLQMNSLKPEDTAVYYCAAEGYYSDYWGQGTQVTVSS | high polyreactivity
26 | QVQLVESGGGLVQAGGSLRLSCAASGRIIYYAMGWYRQAPGKERELVAAITRNGGTYADSVKGRFTISRDNAKNTVYLQMHRLKPEDTAVYYCNADPDFGDDYWGQGTQVTVSS | low polyreactivity
27 | QVQLVESGGGLVQAGGSLRLSCAASGRIIYYYAMGWYRQAPGKERELVAAISWSGVNTYYADSVKGRFTISRDNAKNTVYLQMNSLKPEDTAVYYCAAGFAYKYSKGFWSDYWGQGTQVTVSS | high polyreactivity
28 | QVQLVESGGGLVQAGGSLRLSCAASGRILAINVMGWYRQAPGKERELVAAITLSSGSTYYADSVKGRFTMSRDNAKNTVYFQMNSLKPEDTAVYYCAADVYSGLSEGYYWGQGTQVTVSS | low polyreactivity
29 | QVQLVESGGGLVQAGGSLRLSCAASGRILAPYAMGWYRQAPGKERELVAAINWSTGRTYYADSVKGRFTISRDNAKNTVYLQMNSLKPEDTAVYYCAALIVFDTLYDYGYWGQGPQVTVSS | low polyreactivity
30 | QVQLVESGGGLVQAGGSLRLSCAASGRILARNAMGWYRQAPGKERELVAVISYSGGRTYYADSVKGRFTISRDNAKNTVYLQMNSLKPEDTAVYYCAASRSFQGNRYDYWGQGTQVTVSS | high polyreactivity
31 | QVQLVESGGGLVQAGGSLRLSCAASGRILARYAMGWYRQAPGKERELVASISRRGGSTYYADSVKGRFTISRDNAKNTVYLQMNSLKPEDTAVYYCNARGPVSSGYDYWGQGTQVTVSS | high polyreactivity
32 | QVQLVESGGGLVQAGGSLRLSCAASGRILDANDMGWYRQAPGKERELVAGINSGGSTYYADSVKGRFTISRDNAKNTVYLQMNSLKPEDTAVYYCAAGGVSAKYDYWGQGTKVTVSS | low polyreactivity
33 | QVQLVESGGGLVQAGGSLRLSCAASGRILDFNAMGWYRQAPGKERELVAAINNSGGSTYYADSVKGRFTISRDNAKNTVYLQMNSLKPEDTAVYYCARYAIWKRGYWGQGTQVNVSS | low polyreactivity
34 | QVQLVESGGGLVQAGGSLRLSCAASGRILDKYAMGWYRQAPGKERELVARIRFSGGDTYADSVKGRFTISRDNAKNTVYLQMNSLKPEDTAVYYCNKDRRNRWYAFDYWGQGTQVTVSS | low polyreactivity
35 | QVQLVESGGGLVQAGGSLRLSCAASGRILDVNDMGWYRQAPGKERELVAAISSGTNTYYADSVKGRFTISRDNAKNTVYLQMNSLKPEDTAVYYCAADYLGLSDADDYDYWGQGTQVTVSS | low polyreactivity
36 | QVQLVESGGGLVQAGGSLRLSCAASGRILFHYAMGWYRRAPGKERELVAAITWRGGGTHYADSVKGRFTISRDNAKNTVYLQKNSLKPEDTAVYYCNAEYNGYFSRSGFYYWGQGTQVTVSS | low polyreactivity
37 | QVQLVESGGGLVQAGGSLRLSCAASGRILFSYGAMGWYRQAPGKERELVAAISYSGGSTYYADSVKGRFTISRDNAKNTVYLQMNSLKPEDTAVYYCAASSIVYRHYYWGQGTQVTVSS | high polyreactivity
38 | QVQLVESGGGLVQAGGSLRLSCAASGRILGAYAMGWYRQAPGKERELVASISSGGRTYYADSVKGRFTISRDNAKNTVYLQINSLKQEDTAVYYCAAEYFIWSYPRYEYWGQGTQVNVSS | high polyreactivity
39 | QVQLVESGGGLVQAGGSLRLSCAASGRILGDYAMGWYRQAPGKEREFVAAIDYNGGSTNYADSVMGRFTISRDNAKNTVYLQMNSLKPEDTAVYYCAKTDGFYRGYGYWGQGTQVTVSS | low polyreactivity
40 | QVQLVESGGGLVQAGGSLRLSCAASGRILGKNTMGWYRQAPGKEREFVAAISASGGRTYYADSVKGRFTISRDNAKNTVYLQMNSLKPEDTAVYYCAAARSRYSYATGFDYWGQGTQVTVSS | high polyreactivity
41 | QVQLVESGGGLVQAGGSLRLSCAASGRILGKYAMGWYRQSPGKERELVAAIRLRGGSTYYADSVKGRFTISRDNAKNTLYLQMNSLKPEDTAVYYCAARFWDRSQAYNYWGQGTQVTVSS | high polyreactivity
